Experimental data from patent publication US20080045463.

T1: biotinylated HIF-1α ODD peptide, Q16665
T1 chain: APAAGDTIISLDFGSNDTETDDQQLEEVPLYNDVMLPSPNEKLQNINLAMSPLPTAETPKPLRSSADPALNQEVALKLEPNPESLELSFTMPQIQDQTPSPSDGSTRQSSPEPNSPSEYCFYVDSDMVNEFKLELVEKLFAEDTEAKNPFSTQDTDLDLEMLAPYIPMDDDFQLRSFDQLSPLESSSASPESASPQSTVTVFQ


Target: T1, biotinylated HIF-1α ODD peptide, Q16665

Protein | ^35S-pVHL pulldown enzyme assay activity (Pro564 hydroxylation of the peptide)
Human HPH-1 (protein) MPLGHIMRLDLEKIALEYIVPCLHEVGFCYLDNFLGEVVGDCVLERVKQLHCTGALRDGQLAGPRAGVSKRHLRGDQITWIGGNEEGCEAISFLLSLIDRLVLYCGSRLGKYYVKERSKAMVACYPGNGTGYVRHVDNPNGDGRCITCIYYLNKNWDAKLHGGILRIFPEGKSFIADVEPIFDRLLFFWSDRRNPHEVQPSYATRYAMTVWYFDAEERAEAKKKFRNLTRKTESALTED | As exemplified by HPH-1, the ^35S-pVHL pulldown enzyme assay activity of each HPH homologue was dependent on 2-OG, Fe(II), and ascorbate
Human HPH-2 (protein) MANDSGGPGGPSPSERDRQYCELCGKMENLLRCSRCRSSFYCCKEHQRQDWKKHKLVCQGSEGALGHGVGPHQHSGPAPPAAVPPPRAGAREPRKAAARRDNASGDAAKGKVKAKPPADPAAAASPCRAAAGGQGSAVAAEAEPGKEEPPARSSLFQEKANLYPPSNTPGDALSPGGGLRPNGQTKPLPALKLALEYIVPCMNKHGICVVDDFLGKETGQQIGDEVRALHDTGKFTDGQLVSQKSDSSKDIRGDKITWIEGKEPGCETIGLLMSSMDDLIRHCNGKLGSYKINGRTKAMVACYPGNGTGYVRHVDNPNGDGRCVTCIYYLNKDWDAKVSGGILRIFPEGKAQFADIEPKFDRLLFFWSDRRNPHEVQPAYATRYAITVWYFDADERARAKVKYLTGEKGVRVELNKPSDSVGKDVF | the ^35S-pVHL pulldown enzyme assay activity of each HPH homologue was dependent on 2-OG, Fe(II), and ascorbate
